# Measured values reported in the nanobody polyreactivity screen of Harvey et al. (2022).
# Experiment: yeast display, Sf9 membrane polyspecificity reagent, FACS + sequencing; frameworks hold sequencing errors
# How it was run: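 Galactose-induced (36–48 hours) yeast carrying a synthetic nanobody display library were exposed to 10% biotinylated, detergent-solubilized Sf9 membrane reagent at 4 °C for 1 hour. FACS followed streptavidin microbead enrichment, using low and high (top ~1%) gates for expression (anti-HA) and reagent binding (streptavidin). Colony PCR, MiSeq 2 × 250 sequencing and CDR-length filtering followed. Labels for polyreactivity reflect the gate of origin.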
row,Sequence,polyreactivity (PSR sort gate)
1,QVQLVESGGGLVQAGGSLRLSCAASGITFRTNAMGWYRQAPGKERELVAAITTNGGNTYYADSVKGRFTISRDNAKNTVYLQMNSLKPEDTAVYYCNTATYVDSFPDPGDHWGQGTQVTVSS,low polyreactivity
2,QVQLVESGGGLVQAGGSLRLSCAASGITFRWYAMGWYRQAPGKERELVAAISTSGTRTYYADSVKGRFTISRDNAKNTVYLLMNSLKPEDTAVYYCAADYGRQLGRYGFGYWGQGTQVSVSS,high polyreactivity
3,QVQLVESGGGLVQAGGSLRLSCAASGITFRWYTMGWYRQAPGKERELVAAITSSGARTYYADSVKGRFTISRDNAKNTVYLQMNSLKPEDTAVYYCAATQTRFAAKDEYWGQGTQVTVSS,high polyreactivity
4,QVQLVESGGGLVQAGGSLRLSCAASGITFRYFAMGWYRQAPGKERELVAAITRSGSTTYADSVKGRFTISRDNAKNTVYLQMNSLKPEDTAVYYCAVDYYYLTGGVDYWGQGTQVTVSS,low polyreactivity
5,QVQLVESGGGLVQAGGSLRLSCAASGITFRYYAMGWYRQAPGKERELVAAITRGGRTNYADSVKGRFTISRDNAKNTVYLQMNSLKPEDAAVYYCATGRDSNFGNSYYYWGQGTQVTVSS,high polyreactivity
6,QVQLVESGGGLVQAGGSLRLSCAASGITFRYYAMGWYRQAPGKERELVAGISGRGGSTYYADSVKGRFTISRDNAKNTVYLQLNSLKPEDTAVYYCAKDRLWYRGYRWGYYYWGQGTQVTVSS,high polyreactivity
7,QVQLVESGGGLVQAGGSLRLSCAASGITFRYYAMGWYRQAPGKERELVATITRGGSTYYADSVKGRFTISRDNAKNTVYLQMNSLKPEDTADYYCAAAGQRYTYWVDYWGQGTQVTVSS,high polyreactivity
8,QVQLVESGGGLVQAGGSLRLSCAASGITFSFYAMGWYRQAPGKERELVATIDSGGSTNYADSVKGRFTISRDNAKNTVYLQMNSLKPEDTAVYYCAVVFHYSTIGGGYRPRMYYWGQGTQVTVSS,low polyreactivity
9,QVQLVESGGGLVQAGGSLRLSCAASGITFSGYDMGWYRQAPGKERELVADITISTGSTYYADSVKGRFTISRDNAKNTVYLQMNSLKPEDTAVYYCAADWQQDRTVVLPSWGHAYDSWGQGTQVTVSS,low polyreactivity
10,QVQLVESGGGLVQAGGSLRLSCAASGITFSHYAMGWYRQAPGKEREFVAAIRYSGGRTYYADSVKGRFTISRDNAKNTVYLQMNSLKPEDTAVYYCAAVVPDRYWGQGTQVTVSS,high polyreactivity
11,QVQLVESGGGLVQAGGSLRLSCAASGITFSRNAMGWYRQAPGKERELVAVISTRGGRTYYADSVKGRFTISRDNAKNTVYLQMNSLKPEDTAVYYCAARSTYYRQQRGYDYWGQGTQVTVSS,high polyreactivity
12,QVQLVESGGGLVQAGGSLRLSCAASGITFSRYAMGWYRQAPGKERELVASISTSGGSTYYADSVKGRFTISRDNAKNTVYLQMNSLKPEDTAVYYCAASVWSSRRFGYWGQGTQVSVSS,high polyreactivity
13,QVQLVESGGGLVQAGGSLRLSCAASGITFSRYGMGWYRQAPGKERELVAVISWRGGRTYYADSVKGRFTISRYNAKNTVYLHMNSLKPEDTAVYYCAADSRQSVYDYDYWGQGTQVTVSS,high polyreactivity
14,QVQLVESGGGLVQAGGSLRLSCAASGITFSTYAMGWYRQAPGKERELVAAITKSGGSTYYADSVKGRFTISRDNAKNTVYLQMNSLKPEDTAVYYCAAKGWIWNPYNYWGQGTQVTVSS,low polyreactivity
15,QVQLVESGGGLVQAGGSLRLSCAASGITFSVYTMGWYRQAPGKERELVAAIDSDGITNYADSVKGRFTISRDNAKNNVYLQMNSLKPEDTAVYYCAKQSGRADGVSGFDYWGQGTQVTVSS,low polyreactivity
16,QVQLVESGGGLVQAGGSLRLSCAASGITFSWYAMGWYRQAPGKEREFVATISASGGSTYYADSVKGRFTISRDNAKNTVYLQMNSLKAEDTAVYYCAAVIWYRNGARGTFDYWGQGTQETVSS,high polyreactivity
17,QVQLVESGGGLVQAGGSLRLSCAASGITFSYYAMGWYRQAPGKERELVAAINSSGGSTYYADSVKGRFTISRDNAKNTVYLQMNSLKPEDTAVYYCAADSFLYPYAEFGYWGQGTQVTVSS,low polyreactivity
